In patent publication US20220251236A1 (Boehringer Ingelheim, published 2022):
Substitutions are numbered along the chain they refer to.

B1: DLL3#5/CD3#1 (bispecific antibody, human IgG1, kappa, lambda, L234A L235A)
chain 1: not shown
chain 2: EAVVTQEPSLTVSPGGTVTLTCRSSTGAVTTSNYANWVQEKPGQLPRGLIGGTNKRAPWVPARFSGSLLGGKAALTLSGAQPEDEAEYFCALWYSNLWVFGGGTKLTVLGQPKAAPSVTLFPPSSEELQANKATLVCLISDFYPGAVKVAWKADGSPVNTGVETTTPSKQSNNKYAASSYLSLTPEQWKSHRSYSCQVTHEGSTVEKTVAPAECSGGGGSEGKSSGSGSESKSTEGKSSGSGSESKSTGGGGSEVQLVESGGGLVQPGGSLKLSCAASGFTFNTYAMNWVRQAPGKGLEWVARIRSKYNNYATYYADSVKDRFTISRDDSKNTAYLQMNNLKTEDTAVYYCVRHGNFGNSYVSWFAYWGQGTLVTVSAASTKGPSVFPLAPSSKSTSGGTAALGCLVKDYFPEPVTVSWNSGALTSGVHTFPAVLQSSGLYSLSSVVTVPSSSLGTQTYICNVNHKPSNTKVDKRVEPKSCDKTHTCPPCPAPEAAGGPSVFLFPPKPKDTLMISRTPEVTCVVVDVSHEDPEVKFNWYVDGVEVHNAKTKPREEQYNSTYRVVSVLTVLHQDWLNGKEYKCKVSNKALPAPIEKTISKAKGQPREPQVYTLPPSREEMTKNQVSLSCAVKGFYPSDIAVEWESNGQPENNYKTTPPVLDSDGSFFLVSKLTVDKSRWQQGNVFSCSVMHEALHNRFTQKSLSLSPG
notes: Heterodimer of one DLL3 chain and one CD3 chain (scFab-Fc, knob-in-hole)
B2: DLL3#4/CD3#1 (bispecific antibody, human IgG1, kappa, lambda, L234A L235A)
chain 1: not shown
chain 2: B1 chain 2
notes: as for B1
B3: DLL3#2/CD3#1 (bispecific antibody, human IgG1, kappa, lambda, L234A L235A)
chain 1: DIQMTQSPSAMSASVGDRVTITCRASQGISNYLAWFQQKPGKVPEPLIYAASSLQSGVPSRFSGSGSVTEFTLTISSLQPEDFATYYCLQHNSSPYTFGQGTKLEIKRTVAAPSVFIFPPSDEQLKSGTASVVCLLNNFYPREAKVQWKVDNALQSGNSQESVTEQDSKDSTYSLSSTLTLSKADYEKHKVYACEVTHQGLSSPVTKSFNRGECGGGGSEGKSSGSGSESKSTEGKSSGSGSESKSTGGGGSQVQLVQSGAEVKKPGASVKVSCKASGYTFTSYYMHWVRQAPGQGLEWMGIINPSGGSTSYAQKFQGRVTMTRDTSTSTVYMELSSLRSEDTAVYYCARGEAVGGNYYYYGMDVWGQGTTVTVSSASTKGPSVFPLAPSSKSTSGGTAALGCLVKDYFPEPVTVSWNSGALTSGVHTFPAVLQSSGLYSLSSVVTVPSSSLGTQTYICNVNHKPSNTKVDKRVEPKSCDKTHTCPPCPAPEAAGGPSVFLFPPKPKDTLMISRTPEVTCVVVDVSHEDPEVKFNWYVDGVEVHNAKTKPREEQYNSTYRVVSVLTVLHQDWLNGKEYKCKVSNKALPAPIEKTISKAKGQPREPQVYTLPPSREEMTKNQVSLWCLVKGFYPSDIAVEWESNGQPENNYKTTPPVLDSDGSFFLYSKLTVDKSRWQQGNVFSCSVMHEALHNHYTQKSLSLSPG
chain 2: B1 chain 2
notes: as for B1
B4: DLL3#3/CD3#1 (bispecific antibody, human IgG1, kappa, lambda, L234A L235A)
chain 1: DIQMTQSPSAMSASVGDRVTITCRASQGISNYLVWFQQKPGKAPKRLIYAVSSLYSGVPSRFSGSGSGTEFTLTISSLQPEDFATYYCLQHDSYPYTFGQGTKLEIKRTVAAPSVFIFPPSDEQLKSGTASVVCLLNNFYPREAKVQWKVDNALQSGNSQESVTEQDSKDSTYSLSSTLTLSKADYEKHKVYACEVTHQGLSSPVTKSFNRGECGGGGSEGKSSGSGSESKSTEGKSSGSGSESKSTGGGGSQVQLVQSGAEVKKPGASVKVSCKASGYTFTSYYVHWVRQAPGQGLEWMVIINPGGGTTSYAQKFLGRVTMTRDTSTNTVYMELKSLRSEDTAVYYCARGEAVTGNYFYYGMDVWGQGTTVTVSSASTKGPSVFPLAPSSKSTSGGTAALGCLVKDYFPEPVTVSWNSGALTSGVHTFPAVLQSSGLYSLSSVVTVPSSSLGTQTYICNVNHKPSNTKVDKRVEPKSCDKTHTCPPCPAPEAAGGPSVFLFPPKPKDTLMISRTPEVTCVVVDVSHEDPEVKFNWYVDGVEVHNAKTKPREEQYNSTYRVVSVLTVLHQDWLNGKEYKCKVSNKALPAPIEKTISKAKGQPREPQVYTLPPSREEMTKNQVSLWCLVKGFYPSDIAVEWESNGQPENNYKTTPPVLDSDGSFFLYSKLTVDKSRWQQGNVFSCSVMHEALHNHYTQKSLSLSPG
chain 2: B1 chain 2
notes: as for B1
B5: DLL3#3/CD3#2 (bispecific antibody, human IgG1, kappa, lambda, L234A L235A)
chain 1: B4 chain 1
chain 2: B1 chain 2 with N309I
notes: as for B1

molecular target: T1, human DLL3 (endogenous, on SCLC cell lines NCI-H82 and SHP77 and in SCLC tissue) (human, UniProt Q9NYJ7 27-618); test: flow cytometry titration on SHP77 cells, PE anti-human secondary, x-fold over background
T1 construct: whole, on cells; also called SCLC cell lines expressing DLL3
T1 sequence (looked up): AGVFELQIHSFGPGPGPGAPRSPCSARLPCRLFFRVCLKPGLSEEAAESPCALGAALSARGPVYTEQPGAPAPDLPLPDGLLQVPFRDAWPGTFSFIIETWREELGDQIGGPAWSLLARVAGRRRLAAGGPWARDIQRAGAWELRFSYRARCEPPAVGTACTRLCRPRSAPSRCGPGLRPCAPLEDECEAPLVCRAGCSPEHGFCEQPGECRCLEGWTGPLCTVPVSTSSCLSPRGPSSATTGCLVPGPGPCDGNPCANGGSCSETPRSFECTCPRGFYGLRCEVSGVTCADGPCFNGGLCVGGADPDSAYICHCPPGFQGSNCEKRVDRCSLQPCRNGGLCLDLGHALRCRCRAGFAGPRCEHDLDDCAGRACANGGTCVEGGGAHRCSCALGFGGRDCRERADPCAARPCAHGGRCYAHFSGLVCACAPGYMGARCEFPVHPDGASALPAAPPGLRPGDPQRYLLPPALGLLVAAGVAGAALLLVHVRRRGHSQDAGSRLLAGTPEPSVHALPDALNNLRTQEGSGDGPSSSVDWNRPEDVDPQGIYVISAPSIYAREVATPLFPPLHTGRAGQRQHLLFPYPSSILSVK
From the text: Cells (T cells or human SCLC cells) were stained with increasing concentrations of two-step purified DLL3/CD3 binding proteins with increasing concentrations in FACS buffer (PBS/0.5% BSA/0.05% sodium azide). Bound molecules were detected with PE-conjugated anti-human secondary antibody (Sigma-Aldrich, #P8047).

Row | Binder | EC50 (read off the curve) [nM]
1 | B1 | ~1
2 | B2 | ~0.3

molecular target: T2, Human CD3 E+G HuFc-6xHis (human); test: SPR (ProteOn XPR36), HuCD3E_HuCD3G-Fc amine-coupled, bispecific as analyte, Example 4B
T2 construct: also called hu CD3εγ-Fc
T2 sequence (chain, as listed by the source limits assumed): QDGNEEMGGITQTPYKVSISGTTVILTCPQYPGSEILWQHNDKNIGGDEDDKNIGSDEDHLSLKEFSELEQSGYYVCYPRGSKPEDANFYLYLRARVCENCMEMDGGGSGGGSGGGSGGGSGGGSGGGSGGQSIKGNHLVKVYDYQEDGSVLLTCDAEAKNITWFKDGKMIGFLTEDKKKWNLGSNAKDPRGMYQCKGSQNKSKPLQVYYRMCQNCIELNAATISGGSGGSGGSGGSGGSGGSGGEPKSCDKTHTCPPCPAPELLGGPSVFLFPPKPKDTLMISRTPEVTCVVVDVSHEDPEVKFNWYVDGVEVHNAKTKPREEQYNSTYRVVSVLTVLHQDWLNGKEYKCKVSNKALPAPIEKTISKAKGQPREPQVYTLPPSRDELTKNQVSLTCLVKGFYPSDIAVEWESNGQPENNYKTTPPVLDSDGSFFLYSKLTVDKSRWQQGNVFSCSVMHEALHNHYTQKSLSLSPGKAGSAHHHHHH
Method in brief: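 SPR kinetics with the bispecific constructs flowed as analyte over a directly amine-coupled (pH 4.5 acetate) human CD3εγ-Fc surface. Association runs 600 s and dissociation 1800 s, at 30 μl/min in PBS-T-EDTA.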

Row | Binder | Kd [nM]
3 | B3 | 3
4 | B1 | 3
5 | B4 | 2
6 | B2 | 2
7 | B5 | 7

Molecular target: T3, EGF6+MEMBRANE PROXIMAL PEPTIDE
T3 construct: also called Hu DLL3 EGF6+membrane proximal peptide on HEK293 cells
T3 membrane-anchored DLL3 subdomain construct: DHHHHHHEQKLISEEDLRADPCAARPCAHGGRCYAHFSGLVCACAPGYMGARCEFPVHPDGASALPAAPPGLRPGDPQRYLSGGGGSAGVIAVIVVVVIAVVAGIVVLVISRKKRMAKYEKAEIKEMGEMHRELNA
Test: flow cytometry on HEK293 cells expressing the DLL3 subdomain construct, PE anti-human secondary, control: secondary antibody only
Method in brief: (§1)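 Binders tested on HEK293 cells displaying the DLL3 subdomain construct; bound molecules detected by flow cytometry using PE-conjugated anti-human secondary antibody. Negative control: cells with secondary antibody only.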

Row | Binder | binding result
8 | B1 | no binding (tested: 1.6 nM)
9 | B2 | no binding (tested: 1.6 nM)

Molecular target: T4, EGF4+5
T4 construct: also called Hu DLL3 EGF4+5 on HEK293 cells
T4 membrane-anchored DLL3 subdomain construct: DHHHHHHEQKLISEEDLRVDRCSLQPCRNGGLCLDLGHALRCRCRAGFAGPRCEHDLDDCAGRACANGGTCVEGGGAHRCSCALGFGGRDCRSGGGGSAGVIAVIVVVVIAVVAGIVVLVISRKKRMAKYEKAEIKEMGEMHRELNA
Test: as above
Method in brief: as §1

Row | Binder | binding result
10 | B3 | no binding (tested: 1.6 nM)
11 | B1 | no binding (tested: 1.6 nM)
12 | B4 | no binding (tested: 1.6 nM)
13 | B5 | no binding (tested: 1.6 nM)

Molecular target: T5, EGF3+4
T5 construct: also called Hu DLL3 EGF3+4 on HEK293 cells
T5 membrane-anchored DLL3 subdomain construct: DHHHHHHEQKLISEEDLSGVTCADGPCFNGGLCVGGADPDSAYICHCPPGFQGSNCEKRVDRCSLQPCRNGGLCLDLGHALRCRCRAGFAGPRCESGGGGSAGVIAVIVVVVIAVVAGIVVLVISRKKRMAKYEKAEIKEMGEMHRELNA
Test: as above
Method in brief: as §1

Row | Binder | binding result
14 | B3 | no binding (tested: 1.6 nM)
15 | B1 | no binding (tested: 1.6 nM)
16 | B4 | no binding (tested: 1.6 nM)
17 | B5 | no binding (tested: 1.6 nM)

Molecular target: T6, EGF2+3
T6 construct: also called Hu DLL3 EGF2+3 on HEK293 cells
T6 membrane-anchored DLL3 subdomain construct: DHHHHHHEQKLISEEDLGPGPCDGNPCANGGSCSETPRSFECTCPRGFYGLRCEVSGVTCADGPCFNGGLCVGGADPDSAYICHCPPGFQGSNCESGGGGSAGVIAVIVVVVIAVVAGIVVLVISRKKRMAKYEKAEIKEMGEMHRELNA
Test: as above
Method in brief: as §1

Row | Binder | binding result
18 | B3 | no binding (tested: 1.6 nM)
19 | B1 | no binding (tested: 1.6 nM)
20 | B4 | no binding (tested: 1.6 nM)
21 | B2 | no binding (tested: 1.6 nM)
22 | B5 | no binding (tested: 1.6 nM)

Molecular target: T7, EGF1+2
T7 construct: also called Hu DLL3 EGF1+2 on HEK293 cells
T7 membrane-anchored DLL3 subdomain construct: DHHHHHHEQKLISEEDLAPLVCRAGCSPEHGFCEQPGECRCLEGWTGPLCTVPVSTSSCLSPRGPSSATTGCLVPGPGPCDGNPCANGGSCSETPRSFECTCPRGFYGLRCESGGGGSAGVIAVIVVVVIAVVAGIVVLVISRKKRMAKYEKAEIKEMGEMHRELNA
Test: as above
Method in brief: as §1

Row | Binder | binding result
23 | B3 | no binding (tested: 1.6 nM)
24 | B4 | no binding (tested: 1.6 nM)
25 | B2 | no binding (tested: 1.6 nM)
26 | B5 | no binding (tested: 1.6 nM)

Molecular target: T8, EGF5+6
T8 construct: also called Hu DLL3 EGF5+6 on HEK293 cells
T8 membrane-anchored DLL3 subdomain construct: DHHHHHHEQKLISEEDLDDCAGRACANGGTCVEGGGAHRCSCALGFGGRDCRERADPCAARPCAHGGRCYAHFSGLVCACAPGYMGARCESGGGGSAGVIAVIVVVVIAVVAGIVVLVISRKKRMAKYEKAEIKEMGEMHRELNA
Test: as above
Method in brief: as §1

Row | Binder | binding result
27 | B3 | no binding (tested: 1.6 nM)
28 | B1 | no binding (tested: 1.6 nM)
29 | B4 | no binding (tested: 1.6 nM)
30 | B2 | no binding (tested: 1.6 nM)
31 | B5 | no binding (tested: 1.6 nM)
